Laboratory results published in article PMC9672406.
Positions count from the first letter of the chain named. Names and notes keep the numbering of the source.

B1: ScMqnA (chorismate dehydratase MqnA) (Streptomyces coelicolor A3(2)) (protein)
chain: MDNSRTRPRVGHIQFLNCLPLYWGLARTGTLLDFELTKDTPEKLSEQLVRGDLDIGPVTLVEFLKNADDLVAFPDIAVGCDGPVMSCVIVSQVPLDRLDGARVALGSTSRTSVRLAQLLLSERFGVQPDYYTCPPDLSLMMQEADAAVLIGDAALRANMIDGPRYGLDVHDLGALWKEWTGLPFVFAVWAARRDYAEREPVITRKVHEAFLASRNLSLEEVEKVAEQAARWEAFDEDTLAKYFTTLDFRFGAPQLEAVTEFARRVGPTTGFPADVKVELLKP
B2: ScMqnA (chorismate dehydratase MqnA) (Streptomyces coelicolor A3(2); N17A) (protein)
chain: B1 chain with N17A
B3: ScMqnA (chorismate dehydratase MqnA) (Streptomyces coelicolor A3(2); Y242F) (protein)
chain: B1 chain with Y242F

substrate: C=C(O[C@@H]1C=C(C(=O)O)C=C[C@H]1O)C(=O)O; experiment: purified protein; settings: 100 mM Tris/HCl pH 7.5, 22 °C, 5 min, 0.05 μM enzyme

Protein	Km [µM]	Vmax [µmol/min/mg]	kcat [s⁻¹]
B1	121 ± 38	0.458	0.24 ± 0.02
B2	257 ± 87	0.473	0.25 ± 0.02
B3	377 ± 106	1.06	0.56 ± 0.06
